Laboratory results published in patent publication US7754689B2, “Finger-1 peptide analogs of the TGF-β superfamily” (Wyeth LLC, priority 2006, dated 2010).

Target: T1, BMP-3 (Homo sapiens, UniProt P12645)
T1 construct: a propeptide fragment copurifies along with the mature protein; made in house; host or cells: CHO cells (conditioned medium)
T1 sequence (P12645 363-472): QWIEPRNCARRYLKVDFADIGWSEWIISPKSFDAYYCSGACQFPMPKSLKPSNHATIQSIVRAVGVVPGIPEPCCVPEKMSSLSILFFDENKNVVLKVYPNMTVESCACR
Assay: Affinity column chromatography, capture and elution of BMP-3
Type: binding
Method: BMP-12 was immobilized on NHS-activated Sepharose™ beads at a ratio of about 20 mg:4 mL and the resulting media combined with water or neutral saline buffer to prepare a column. CHO-conditioned media augmented with 1.2 M NaCl was loaded onto the column. In some cases, the media was preconcentrated with respect to BMP before loading. The column was washed with 15 CV (column volumes) of 1.2 M NaCl in 40 mM Na2HPO4 at pH 7.2, followed by 0.5 M arginine/0.5 M NaCl in 20 mM Tris at pH 7.5 (15 CV) and a low salt wash (50 mM ammonium acetate at pH 7, 15 CV). […] Finally, the column was eluted with 5CV of the acetic acid solution with 6M guanidine hydrochloride (GuHCl).
The eluate was analyzed using HPLC.
4 mL of the resulting resin (1.6×2.0 cm) was used to prepare a column. The column was loaded with BMP-3 and eluted as in Example 1.

- capture of BMP-3 by column with immobilized ligand (CHO-conditioned media with 1.2 M NaCl (high salt) load): effectively captured
- elution of BMP-3 from column with immobilized ligand (washes, then gradient to 50 mM acetic acid pH 3, then 6M GuHCl): eluted with acetic acid
B1: BMP-12: Bone Morphogenic Protein, member of the TGF-β superfamily; tested in solution and immobilized on Sepharose beads as affinity ligand (protein)
chain: TALAGTRTAQGSGGGAGRGHGRRGRSRCSRKPLHVDFKELGWDDWIIAPLDYEAYHCEGLCDFPLRSHLEPTNHAIIQTLLNSMAPDAAPASCCVPARLSPISILYIDAANNVVYKQYEDMVVEACGCR
